Here are results for three molecules from patent US20120149060A1 (EUROPAISCHES LABORATORIUM FUR MOLEKULARBIOLOGIE EMBL, published 2012).

Assay [1] has as its target T1, Von Hippel Lindau protein (amino acids 54-213), fused at its N-terminus to a six-histidine-thioredoxin fusion … (human, UniProt P40337 54-213).
T1 construct: range 54-213; Subunit of the VHLbc complex, expressed from the pACE-VHLbc tricistron; also called VHL; HisTrxVHL; not shown: N-terminal six-histidine-thioredoxin fusion tag
Put plainly: co-expression in E. coli, Ni2+ affinity capture by the tag on VHL, SDS-PAGE.

Assay [2] addresses T2, full-length human RAP74 with a C-terminal oligo-histidine tag (human, UniProt P35269 1-517).
T2 construct: Stated to be full-length; co-expressed with RAP30 in E. coli BL21(DE3); also called hRAP74; RAP74his; not shown: C-terminal oligo-histidine tag
T2 sequence (looked up): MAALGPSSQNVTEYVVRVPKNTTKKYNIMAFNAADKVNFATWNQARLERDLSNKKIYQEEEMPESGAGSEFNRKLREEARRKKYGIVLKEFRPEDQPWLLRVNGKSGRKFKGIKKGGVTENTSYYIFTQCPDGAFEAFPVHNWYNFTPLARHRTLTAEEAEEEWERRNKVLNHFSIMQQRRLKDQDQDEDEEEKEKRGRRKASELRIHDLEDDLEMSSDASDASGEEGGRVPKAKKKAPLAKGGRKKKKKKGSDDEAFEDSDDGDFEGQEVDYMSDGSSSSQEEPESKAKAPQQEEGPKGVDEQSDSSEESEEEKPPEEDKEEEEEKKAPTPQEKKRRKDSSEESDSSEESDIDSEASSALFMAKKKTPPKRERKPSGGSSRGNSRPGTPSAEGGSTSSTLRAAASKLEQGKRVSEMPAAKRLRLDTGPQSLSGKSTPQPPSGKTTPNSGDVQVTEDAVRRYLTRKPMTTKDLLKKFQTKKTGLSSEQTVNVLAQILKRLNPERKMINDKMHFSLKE
Briefly: co-expression in E. coli, Ni2+ capture by the His tag on RAP74, then S200 size exclusion chromatography. In general terms: Size exclusion chromatography separates by hydrodynamic size, large species first.

In assay [3] the target is T3, Bud13p (yeast, UniProt P46947 1-266).
T3 construct: Stated to be full-length; subunit of the yeast RES complex
T3 sequence (looked up): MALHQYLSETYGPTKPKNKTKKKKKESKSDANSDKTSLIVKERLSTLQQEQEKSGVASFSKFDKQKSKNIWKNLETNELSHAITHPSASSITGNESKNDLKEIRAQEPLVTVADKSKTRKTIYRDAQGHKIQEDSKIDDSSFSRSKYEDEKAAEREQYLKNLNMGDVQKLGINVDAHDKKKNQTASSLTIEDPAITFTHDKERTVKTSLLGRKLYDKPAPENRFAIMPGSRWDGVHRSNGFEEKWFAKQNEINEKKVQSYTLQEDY
Briefly: co-expression in E. coli, Ni2+ capture by the His6 tag on Snu17p, then S200 size exclusion chromatography.

For assay [4], the target named is T4, Pml1p (yeast, UniProt Q07930 1-204).
T4 construct: Stated to be full-length; subunit of the yeast RES complex; also called Pm1lp
T4 sequence (looked up): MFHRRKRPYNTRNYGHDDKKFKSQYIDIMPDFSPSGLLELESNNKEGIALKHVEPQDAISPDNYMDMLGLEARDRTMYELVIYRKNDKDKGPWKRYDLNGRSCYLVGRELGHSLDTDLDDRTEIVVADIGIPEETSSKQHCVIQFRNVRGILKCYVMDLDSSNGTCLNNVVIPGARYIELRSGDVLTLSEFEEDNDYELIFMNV
The description is as above.

T1 sequence (P40337 54-213): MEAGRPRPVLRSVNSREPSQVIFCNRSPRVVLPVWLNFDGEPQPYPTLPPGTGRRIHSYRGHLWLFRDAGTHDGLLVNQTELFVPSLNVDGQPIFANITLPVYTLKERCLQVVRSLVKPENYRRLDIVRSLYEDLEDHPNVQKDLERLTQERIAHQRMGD

B1: full-length elongin b (other, human, UniProt Q15370 1-118, looked up)
chain: MDVFLMIRRHKTTIFTDAKESSTVFELKRIVEGILKRPPDEQRLYKDDQLLDDGKTLGECGFTSQTARPQAPATVGLAFRADDTFEALCIEPFSSPPELPDVMKPQDSGSSANEQAVQ
notes: Stated to be full-length
Turning to B1, the binding result in assay [1] was “binds”.

B2: full-length human RAP30 (other, UniProt P13984 1-249, looked up)
chain: MAERGELDLTGAKQNTGVWLVKVPKYLSQQWAKASGRGEVGKLRIAKTQGRTEVSFTLNEDLANIHDIGGKPASVSAPREHPFVLQSVGGQTLTVFTESSSDKLSLEGIVVQRAECRPAASENYMRLKRLQIEESSKPVRLSQQLDKVVTTNYKPVANHQYNIEYERKKKEDGKRARADKQHVLDMLFSAFEKHQYYNLKDLVDITKQPVVYLKEILKEIGVQNVKGIHKNTWELKPEYRHYQGEEKSD
notes: Stated to be full-length; also called hRAP30
With B2, the binding result in assay [2] is recorded as “binds”.

B3: His6-tagged Snu17p (other, yeast, UniProt P40565 1-148, looked up)
chain: MNKIQQINDKELQSGILSPHQSWHNEYKDNAYIYIGNLNRELTEGDILTVFSEYGVPVDVILSRDENTGESQGFAYLKYEDQRSTILAVDNLNGFKIGGRALKIDHTFYRPKRSLQKYYEAVKEELDRDIVSKNNAEKLILAKKDQPN
notes: Stated to be full-length; subunit of the yeast RES complex; also called Snu17p-NHis; not shown: six-histidine tag fused to the N-terminus
Take B3: the binding result in assay [3] and in assay [4] was “binds” each time.
